Data set [1] addresses T1, TerR35-138 (Aspergillus terreus SBUG844, UniProt Q0D1P5 35-138).
T1 sequence: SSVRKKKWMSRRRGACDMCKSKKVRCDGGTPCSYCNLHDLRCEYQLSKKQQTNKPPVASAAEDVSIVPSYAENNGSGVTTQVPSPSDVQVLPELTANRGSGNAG
In words: SPR; molar ratio 1.17; SPR (Biacore 2000, SA-coated CM3 chip): 10 mM HEPES pH 7.4, 150 mM NaCl, 0.005% P20, 5 mM beta-mercaptoethanol, 1 uM ZnCl2, 25 C; protein 12.5-6400 nM; 1:1 model with mass transport. Particulars: protein: recombinant; (pET-29a; theoretical mass 11.35 kDa); label: biotin on one strand; 18 bp duplex. (In SPR one partner is held on a chip, and binding of the other changes the refractive index at the surface.)

Data set [2] concerns the target T2, TerR43-138 (Aspergillus terreus SBUG844, UniProt Q0D1P5 43-138).
T2 sequence: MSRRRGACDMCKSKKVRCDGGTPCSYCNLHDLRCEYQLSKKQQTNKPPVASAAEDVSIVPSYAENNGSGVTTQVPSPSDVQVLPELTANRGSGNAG
Nature of the data set: SPR; molar ratio 1.06; SPR (Biacore 2000, SA-coated CM3 chip): 10 mM HEPES pH 7.4, 150 mM NaCl, 0.005% P20, 5 mM beta-mercaptoethanol, 1 uM ZnCl2, 25 C; protein 12.5-6400 nM; 1:1 model with mass transport. Particulars: protein: recombinant; (pET-29a; mass used 10218 Da); label: biotin on one strand; 18 bp duplex.

For data set [3], the target named is T1, TerR35-138. Nature of the data set: SPR; molar ratio 1.62; SPR (Biacore 2000, SA-coated CM3 chip): 10 mM HEPES pH 7.4, 150 mM NaCl, 0.005% P20, 5 mM beta-mercaptoethanol, 1 uM ZnCl2, 25 C; protein 12.5-6400 nM; 1:1 model with mass transport. Conditions: protein: recombinant; (pET-29a; theoretical mass 11.35 kDa); label: biotin on one strand; 18 bp duplex.
The target of data set [4] is T2, TerR43-138. In words: SPR; molar ratio 1.04; SPR (Biacore 2000, SA-coated CM3 chip): 10 mM HEPES pH 7.4, 150 mM NaCl, 0.005% P20, 5 mM beta-mercaptoethanol, 1 uM ZnCl2, 25 C; protein 12.5-6400 nM; 1:1 model with mass transport. Conditions: protein: recombinant; (pET-29a; mass used 10218 Da); label: biotin on one strand; 18 bp duplex.
In data set [5] the target is T1, TerR35-138. In words: SPR; molar ratio 1.87; SPR (Biacore 2000, SA-coated CM3 chip): 10 mM HEPES pH 7.4, 150 mM NaCl, 0.005% P20, 5 mM beta-mercaptoethanol, 1 uM ZnCl2, 25 C; protein 12.5-6400 nM; 1:1 model with mass transport. Particulars: protein: recombinant; (pET-29a; theoretical mass 11.35 kDa); label: biotin on one strand; 18 bp duplex.
For data set [6], the target named is T1, TerR35-138. In words: SPR; molar ratio 1.19; SPR (Biacore 2000, SA-coated CM3 chip): 10 mM HEPES pH 7.4, 150 mM NaCl, 0.005% P20, 5 mM beta-mercaptoethanol, 1 uM ZnCl2, 25 C; protein 12.5-6400 nM; 1:1 model with mass transport. Particulars: protein: recombinant; (pET-29a; theoretical mass 11.35 kDa); label: biotin on one strand; 18 bp duplex.
The target of data set [7] is T2, TerR43-138. In words: SPR; molar ratio 0.88; SPR (Biacore 2000, SA-coated CM3 chip): 10 mM HEPES pH 7.4, 150 mM NaCl, 0.005% P20, 5 mM beta-mercaptoethanol, 1 uM ZnCl2, 25 C; protein 12.5-6400 nM; 1:1 model with mass transport. Conditions: protein: recombinant; (pET-29a; mass used 10218 Da); label: biotin on one strand; 18 bp duplex.
The target in data set [8] is T1, TerR35-138. Nature of the data set: SPR; molar ratio 1.51; SPR (Biacore 2000, SA-coated CM3 chip): 10 mM HEPES pH 7.4, 150 mM NaCl, 0.005% P20, 5 mM beta-mercaptoethanol, 1 uM ZnCl2, 25 C; protein 12.5-6400 nM; 1:1 model with mass transport. Conditions: protein: recombinant; (pET-29a; theoretical mass 11.35 kDa); label: biotin on one strand; 18 bp duplex.
The target in data set [9] is T2, TerR43-138. Nature of the data set: SPR; molar ratio 0.92; SPR (Biacore 2000, SA-coated CM3 chip): 10 mM HEPES pH 7.4, 150 mM NaCl, 0.005% P20, 5 mM beta-mercaptoethanol, 1 uM ZnCl2, 25 C; protein 12.5-6400 nM; 1:1 model with mass transport. Conditions: protein: recombinant; (pET-29a; mass used 10218 Da); label: biotin on one strand; 18 bp duplex.
Data set [10] concerns the target T1, TerR35-138. Nature of the data set: SPR; molar ratio 1.93; SPR (Biacore 2000, SA-coated CM3 chip): 10 mM HEPES pH 7.4, 150 mM NaCl, 0.005% P20, 5 mM beta-mercaptoethanol, 1 uM ZnCl2, 25 C; protein 12.5-6400 nM; 1:1 model with mass transport. Particulars: protein: recombinant; (pET-29a; theoretical mass 11.35 kDa); label: biotin on one strand; 18 bp duplex.
Data set [11] addresses T1, TerR35-138. Nature of the data set: SPR; molar ratio 0.95; SPR (Biacore 2000, SA-coated CM3 chip): 10 mM HEPES pH 7.4, 150 mM NaCl, 0.005% P20, 5 mM beta-mercaptoethanol, 1 uM ZnCl2, 25 C; protein 12.5-6400 nM; 1:1 model with mass transport. Particulars: protein: recombinant; (pET-29a; theoretical mass 11.35 kDa); label: biotin on one strand; 18 bp duplex.
In data set [12] the target is T1, TerR35-138. Nature of the data set: SPR; molar ratio 0.92; SPR (Biacore 2000, SA-coated CM3 chip): 10 mM HEPES pH 7.4, 150 mM NaCl, 0.005% P20, 5 mM beta-mercaptoethanol, 1 uM ZnCl2, 25 C; protein 12.5-6400 nM; 1:1 model with mass transport. Conditions: protein: recombinant; (pET-29a; theoretical mass 11.35 kDa); label: biotin on one strand; 18 bp duplex.
The target in data set [13] is T2, TerR43-138. In words: SPR; molar ratio 0.91; SPR (Biacore 2000, SA-coated CM3 chip): 10 mM HEPES pH 7.4, 150 mM NaCl, 0.005% P20, 5 mM beta-mercaptoethanol, 1 uM ZnCl2, 25 C; protein 12.5-6400 nM; 1:1 model with mass transport. Particulars: protein: recombinant; (pET-29a; mass used 10218 Da); label: biotin on one strand; 18 bp duplex.
Data set [14] has as its target T1, TerR35-138. In words: SPR; molar ratio 1.25; SPR (Biacore 2000, SA-coated CM3 chip): 10 mM HEPES pH 7.4, 150 mM NaCl, 0.005% P20, 5 mM beta-mercaptoethanol, 1 uM ZnCl2, 25 C; protein 12.5-6400 nM; 1:1 model with mass transport. Particulars: protein: recombinant; (pET-29a; theoretical mass 11.35 kDa); label: biotin on one strand; 18 bp duplex.
In data set [15] the target is T1, TerR35-138. In words: SPR; molar ratio 1.74; SPR (Biacore 2000, SA-coated CM3 chip): 10 mM HEPES pH 7.4, 150 mM NaCl, 0.005% P20, 5 mM beta-mercaptoethanol, 1 uM ZnCl2, 25 C; protein 12.5-6400 nM; 1:1 model with mass transport. Conditions: protein: recombinant; (pET-29a; theoretical mass 11.35 kDa); label: biotin on one strand; 18 bp duplex.
In data set [16] the target is T1, TerR35-138. In words: SPR; molar ratio 1.14; SPR (Biacore 2000, SA-coated CM3 chip): 10 mM HEPES pH 7.4, 150 mM NaCl, 0.005% P20, 5 mM beta-mercaptoethanol, 1 uM ZnCl2, 25 C; protein 12.5-6400 nM; 1:1 model with mass transport. Conditions: protein: recombinant; (pET-29a; theoretical mass 11.35 kDa); label: biotin on one strand; 18 bp duplex.
The target of data set [17] is T1, TerR35-138. In words: SPR; molar ratio 1.12; SPR (Biacore 2000, SA-coated CM3 chip): 10 mM HEPES pH 7.4, 150 mM NaCl, 0.005% P20, 5 mM beta-mercaptoethanol, 1 uM ZnCl2, 25 C; protein 12.5-6400 nM; 1:1 model with mass transport. Conditions: protein: recombinant; (pET-29a; theoretical mass 11.35 kDa); label: biotin on one strand; 18 bp duplex.
Data set [18] has as its target T2, TerR43-138. Nature of the data set: SPR; molar ratio 0.85; SPR (Biacore 2000, SA-coated CM3 chip): 10 mM HEPES pH 7.4, 150 mM NaCl, 0.005% P20, 5 mM beta-mercaptoethanol, 1 uM ZnCl2, 25 C; protein 12.5-6400 nM; 1:1 model with mass transport. Conditions: protein: recombinant; (pET-29a; mass used 10218 Da); label: biotin on one strand; 18 bp duplex.
The target of data set [19] is T2, TerR43-138. In words: SPR; molar ratio 0.95; SPR (Biacore 2000, SA-coated CM3 chip): 10 mM HEPES pH 7.4, 150 mM NaCl, 0.005% P20, 5 mM beta-mercaptoethanol, 1 uM ZnCl2, 25 C; protein 12.5-6400 nM; 1:1 model with mass transport. Particulars: protein: recombinant; (pET-29a; mass used 10218 Da); label: biotin on one strand; 18 bp duplex.
Data set [20] has as its target T1, TerR35-138. In words: SPR; molar ratio 1.38; SPR (Biacore 2000, SA-coated CM3 chip): 10 mM HEPES pH 7.4, 150 mM NaCl, 0.005% P20, 5 mM beta-mercaptoethanol, 1 uM ZnCl2, 25 C; protein 12.5-6400 nM; 1:1 model with mass transport. Conditions: protein: recombinant; (pET-29a; theoretical mass 11.35 kDa); label: biotin on one strand; 18 bp duplex.

B1: BS8 (dsDNA)
DNA 1: CGGGCGGTTAGGCGGCAT
DNA 2: ATGCCGCCTAACCGCCCG
With B1, the Kd (usually the concentration at which binding is half-saturated) worked out at 286 ± 2 nM with TerR35-138 [1] and 17200 ± 500 nM with TerR43-138 [2].

B2: BS2 (dsDNA)
DNA 1: TTATCGGACTTTCGGATT
DNA 2: AATCCGAAAGTCCGATAA
B2: the figures for the dissociation constant Kd with TerR35-138 [3] and in the data set with TerR43-138 [4] were 536 ± 3 nM and 3730 ± 30 nM, respectively.

B3: BS5 (dsDNA)
DNA 1: GGGGCGGCTCCTCGGTAC
DNA 2: GTACCGAGGAGCCGCCCC
Take B3: in the data set with TerR35-138 [5], the Kd came out at 1530 ± 60 nM.

B4: BS4m2 (C directly after 5'-CGG to G) (dsDNA)
DNA 1: TCTTCGGGAATACGGACT
DNA 2: AGTCCGTATTCCCGAAGA
On to B4, for which the Kd was 155 ± 1 nM in the data set with TerR35-138 [6] and 1370 ± 50 nM with TerR43-138 [7].

B5: BS9 (dsDNA)
DNA 1: GCTTCGGTAATTCGGTAA
DNA 2: TTACCGAATTACCGAAGC
For the molecule B5, the figures for the Kd with TerR35-138 [8] and with TerR43-138 [9] were 41 ± 0.4 nM and 820 ± 4 nM, respectively.

B6: BS2m1 (5'-CGG to CAA) (dsDNA)
DNA 1: TTATCAAACTTTCGGATT
DNA 2: AATCCGAAAGTTTGATAA
B6: in the data set with TerR35-138 [10], the Kd is 5780 ± 60 nM.

B7: BS2m2 (3'-CGG to CAA) (dsDNA)
DNA 1: TTATCGGACTTTCAAATT
DNA 2: AATTTGAAAGTCCGATAA
In the case of B7, the Kd in the data set with TerR35-138 [11] is 363 ± 2 nM.

B8: BS7m (second CGG half-site mutated) (dsDNA)
DNA 1: ACTTCGGCTATCCAATTA
DNA 2: TAATTGGATAGCCGAAGT
Regarding B8, the Kd with TerR35-138 [12] is 25.3 ± 0.2 nM.

B9: BS7 (dsDNA)
DNA 1: ACTTCGGCTATCCGGTTA
DNA 2: TAACCGGATAGCCGAAGT
Regarding B9, the Kd was 591 ± 2 nM in the data set with TerR43-138 [13] and 26.5 ± 0.3 nM in the data set with TerR35-138 [14].

B10: BS3 (dsDNA)
DNA 1: GAGACGGAAACTCGGGTT
DNA 2: AACCCGAGTTTCCGTCTC
For B10, the equilibrium dissociation constant (Kd) in the data set with TerR35-138 [15] was determined as 676 ± 3 nM.

B11: BS4 (dsDNA)
DNA 1: TCTTCGGCAATACGGACT
DNA 2: AGTCCGTATTGCCGAAGA
Turning to B11, the Kd in the data set with TerR35-138 [16] was 65.6 ± 0.6 nM; in the data set with TerR43-138 [7], 1070 ± 60 nM.

B12: BS1 (dsDNA)
DNA 1: GAGTCGGCATTACGGCGG
DNA 2: CCGCCGTAATGCCGACTC
B12: the Kd with TerR35-138 [17] came to 527 ± 3 nM.

B13: BS6 (dsDNA)
DNA 1: CTCTCGGAAACTCGGAAA
DNA 2: TTTCCGAGTTTCCGAGAG
As to B13, the figures for the dissociation constant (Kd) in the data set with TerR35-138 [3] and with TerR43-138 [18] were 150 ± 1 nM and 2050 ± 90 nM, respectively.

B14: BS4m1 (TT before 5'-CGG to GG) (dsDNA)
DNA 1: TGGGCGGCAATACGGACT
DNA 2: AGTCCGTATTGCCGCCCA
For the molecule B14, the Kd with TerR43-138 [19] stood at 9300 ± 1000 nM; in the data set with TerR35-138 [20], 429 ± 2 nM.

These data come from PMC4360782, “A new high-performance heterologous fungal expression system based on regulatory elements from the Aspergillus terreus terrein gene cluster”.
